Test results from patent publication US20070292411A1 (Human Genome Sciences, published 2007).

B2: TR4-Fc fusion protein (Fc fusion)
chain: ATIKLHDQSIGTQQWEHSPLGELCPPGSHRSERPGACNRCTEGVGYTNASNNLFACLPCTACKSDEEERSPCTTTRNTACQCKPGTFRNDNSAEMCRKCSTGCPRGMVKVKDCTPWSDIECVHKESGNGHNI
notes: not shown: Fc region

How the values were obtained:
TR4-Fc fusion protein [1] = biological target: B2; assay: competition ELISA, inhibition of biotinylated TRAIL binding to captured TR4-Fc; assay 1
Protocol: (§1) Goat anti-human Fc was diluted to 0.1 micrograms/ml in coating buffer. The Immulon 4 microplate was coated with 100 microliters per well of the Goat anti-human Fc solution and incubated overnight at 4° C. The coating solution was decanted from the plate, and blocking solution was dispensed at 200 microliters per well. The plate was incubated at room temperature for 1 hour. After the 1 hour incubation period, the blocking solution was decanted from the plate and 1 microgram/mL of TR4-Fc was dispensed at 100 microliters/well and incubated for 2 hours at room temperature. After the incubation, the plate was washed five times manually using a Wheaton manifold.
(§2) Hybridoma supernatants were (previously) prepared in a low binding dilution plate using diluent. The supernatants were prepared in duplicate and were diluted from the stock concentration with 2.5 fold dilutions for the 7 subsequent wells. If a purified form of the antibody was available, the starting concentration was 5 micrograms/mL. The positive control (TR4-Fc) was diluted from 5 micrograms/mL. 100 microliters was transferred into the ELISA plate and pre-incubated for 30 minutes at room temperature. […]
(§3) After the one-hour incubation, the plate was decanted and washed with PBST five times and blotted. […] The plate was immediately read at 450 nm using the spectrometer from Molecular Devices.

TR4-Fc fusion protein [2] = biological target: B2; assay: competition ELISA, inhibition of biotinylated TRAIL binding to captured TR4-Fc; assay 2
Protocol: as §1, §2, §3

Biotinylated TRAIL [3] = biological target: T1, Biotinylated TRAIL (Homo sapiens (Human), UniProt P50591 114-281, limits assumed, biotinylated (sites not given)); assay: competition ELISA, soluble TR4 (TR4-Fc positive control) competing with captured TR4-Fc for biotinylated TRAIL; assay 1
T1 sequence (P50591 114-281 limits assumed): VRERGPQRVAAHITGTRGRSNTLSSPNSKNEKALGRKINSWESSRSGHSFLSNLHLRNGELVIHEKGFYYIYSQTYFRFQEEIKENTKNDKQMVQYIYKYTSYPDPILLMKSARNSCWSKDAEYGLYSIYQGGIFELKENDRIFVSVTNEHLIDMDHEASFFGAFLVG
Protocol: as §1, §2, §3

Biotinylated TRAIL [4] = biological target: T1, Biotinylated TRAIL; assay: competition ELISA, soluble TR4 (TR4-Fc positive control) competing with captured TR4-Fc for biotinylated TRAIL; assay 2
Protocol: as §1, §2, §3

B1: monoclonal antibody 7.1.3 (antibody, V domains shown)
VH: QVQLVQSGAEVKKPGASVKVSCKASGYTFTNYDINWVRQAPGQGLEWMGISAYTGNTNYAQKLQGRVTMTTDTSTSTAYMELRSLRSDDTAVYYCVRDYHDSNGYYYFDYWGQGTLVTVS
VL: DIQMIQSPLSLPVIPGEPASMSCRSSRSLLHSNGNNYLEWYLQKPGQSPQLLIYLGSNRASGVPDRFSGSGSGTDFTLKISRVEAEDVGIYYCMQGLQLPWTFGGTKVIKR
- IC50 (TR4-Fc fusion protein [1]): 0.152 µg/mL
- IC50 (TR4-Fc fusion protein [2]): 0.068 µg/mL

Binder: B2
- IC50 (Biotinylated TRAIL [3]): 0.491 µg/mL
- IC50 (Biotinylated TRAIL [4]): 0.284 µg/mL
